# Measurements as given in IntAct's records for PubMed 23274085.
# B1: Sestrin-2 (Homo sapiens), P58004 (parent)
# chain: MIVADSECRAELKDYLRFAPGGVGDSGPGEEQRESRARRGPRGPSAFIPVEEVLREGAESLEQHLGLEALMSSGRVDNLAVVMGLHPDYFTSFWRLHYLLLHTDGPLASSWRHYIAIMAAARHQCSYLVGSHMAEFLQTGGDPEWLLGLHRAPEKLRKLSEINKLLAHRPWLITKEHIQALLKTGEHTWSLAELIQALVLLTHCHSLSSFVFGCGILPEGDADGSPAPQAPTPPSEQSSPPSRDPLNNSGGFESARDVEALMERMQQLQESLLRDEGTSQEEMESRFELEKSESLLVTPSADILEPSPHPDMLCFVEDPTFGYEDFTRRGAQAPPTFRAQDYTWEDHGYSLIQRLYPEGGQLLDEKFQAAYSLTYNTIAMHSGVDTSVLRRAIWNYIHCVFGIRYDDYDYGEVNQLLERNLKVYIKTVACYPEKTTRRMYNLFWRHFRHSEKVHVNLLLLEARMQAALLYALRAITRYMT
# Variants of: B1
# Conditions: with keap1_human KEAP1, Q14145
# Chain of keap1_human KEAP1, Q14145 (Q14145 whole entry): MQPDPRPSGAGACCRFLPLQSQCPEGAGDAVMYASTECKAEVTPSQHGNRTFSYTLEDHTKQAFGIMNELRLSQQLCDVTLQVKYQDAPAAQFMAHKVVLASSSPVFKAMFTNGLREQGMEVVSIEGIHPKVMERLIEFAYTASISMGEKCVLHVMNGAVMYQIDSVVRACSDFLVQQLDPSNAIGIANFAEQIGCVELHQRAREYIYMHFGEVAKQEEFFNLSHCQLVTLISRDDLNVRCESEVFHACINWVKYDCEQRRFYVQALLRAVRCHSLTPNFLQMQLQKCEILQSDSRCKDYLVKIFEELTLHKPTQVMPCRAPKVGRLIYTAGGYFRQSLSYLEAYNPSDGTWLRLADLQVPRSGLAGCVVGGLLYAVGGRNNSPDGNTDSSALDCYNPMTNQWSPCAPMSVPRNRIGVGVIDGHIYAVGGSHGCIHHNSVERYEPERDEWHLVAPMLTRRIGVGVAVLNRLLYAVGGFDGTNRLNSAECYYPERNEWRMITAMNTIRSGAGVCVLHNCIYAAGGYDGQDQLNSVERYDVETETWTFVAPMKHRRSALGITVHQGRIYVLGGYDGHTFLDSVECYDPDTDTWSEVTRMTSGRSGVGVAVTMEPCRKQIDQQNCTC
row,effect of a mutation on the interaction,Variant
1,with no effect,C125S
